Laboratory results from PMC5522101.

Target: VPAC1-C37/A-EYFP (Cys37/Ala mutant of VPAC1 fused with enhanced yellow fluorescent protein) (mouse (stated for the cDNA; the primers of Table 1 and residues 31-457 fit human VPAC1)) (UniProt P97751)
Assay: radioligand binding; competition binding on the cell membrane fraction of CHO cells (50 ug protein/ml): 1 nM [125I]-VIP with or without unlabelled VIP, 60 min at 30°C at equilibrium; nonspecific binding with 2 uM unlabelled peptide; data calibrated by the EYFP fluorescence of the membrane fraction

- Kd: 0.42 nM
Binder: HSDAVFTDNYTRLRKQMAVKKYLNSILN [vasoactive intestinal peptide]
